According to patent US20170355769A1 (AbbVie / Abbott, published 2017):

How the values were obtained:
[1] = target: T1, Human full length B7-H3 (human, UniProt Q5ZPR3 29-534); test: FACS, cell surface human B7-H3 (as Example 6)
T1 construct: On 3T12 fibroblasts expressing full length human B7-H3 or on NCI-H1650 cells; signal peptide residues 1-28 stated; also called huB7-H3; CD276
T1 sequence: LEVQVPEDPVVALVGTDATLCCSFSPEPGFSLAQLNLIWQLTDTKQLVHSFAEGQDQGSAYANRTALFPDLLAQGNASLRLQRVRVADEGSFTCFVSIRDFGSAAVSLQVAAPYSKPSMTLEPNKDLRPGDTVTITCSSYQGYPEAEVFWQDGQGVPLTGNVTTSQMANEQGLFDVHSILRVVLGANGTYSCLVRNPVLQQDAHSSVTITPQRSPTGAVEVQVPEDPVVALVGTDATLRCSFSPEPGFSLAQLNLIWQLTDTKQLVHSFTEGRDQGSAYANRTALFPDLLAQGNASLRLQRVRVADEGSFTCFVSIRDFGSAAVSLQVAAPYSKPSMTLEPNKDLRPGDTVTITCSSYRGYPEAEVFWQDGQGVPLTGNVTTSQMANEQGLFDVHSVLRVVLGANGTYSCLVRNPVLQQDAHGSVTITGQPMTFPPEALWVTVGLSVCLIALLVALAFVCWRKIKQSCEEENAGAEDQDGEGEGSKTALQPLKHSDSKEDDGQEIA
Description: (§1) Cells were harvested from flasks when approximately 80% confluent using Gibco® Cell Dissociation Buffer. Cells were washed once in PBS/1% FBS (FACS buffer) then resuspended at 2.5×10⁶ cells/mL in FACS buffer. 100 μL of cells/well were added to a round bottom 96-well plate. 10 μL of a 10× concentration of mAb/ADC (final concentrations are indicated the figures). Wells were washed twice with FACS buffer and resuspended in 50 μL of secondary Ab (AlexaFluor 488) diluted in FACS buffer. The plate was incubated at 4° C. for one hour and washed twice with FACS buffer. Cells were resuspended in 100 μL of PBS/1% formaldehyde and analyzed on a Becton Dickinson LSRII flow cytometer. Data was analyzed using WinList flow cytometry analysis software.
Nine anti-B7-H3 chimeric antibodies were conjugated to the Bcl-xL inhibiting (Bcl-xLi) synthon CZ (Example 2.1) using conjugation Method A described below. The resulting ADCs (anti-B7-H3 antibodies conjugated to synthon CZ) were tested for binding to cell surface human B7-H3 by FACS (as described in Example 6) and for cell cytotoxicity in cell lines expressing B7-H3. […] Table 6 provides cell surface binding and cytotoxicity activity of anti-B7-H3 chimera ADCs against breast cancer cell HCC38 expressing human B7-H3.

[2] = target: T1, Human full length B7-H3; test: FACS (Example 6 method)
Description: as §1
The parental chAb18 from which the variants were derived was also tested as a comparator.

[3] = target: T2, Human B7-H3-ECD (His tag) (human, UniProt Q5ZPR3 29-461); test: SPR Biacore, naked mAb
T2 construct: SPR analyte; also called huB7-H3; soluble ECD of human B7-H3
T2 sequence: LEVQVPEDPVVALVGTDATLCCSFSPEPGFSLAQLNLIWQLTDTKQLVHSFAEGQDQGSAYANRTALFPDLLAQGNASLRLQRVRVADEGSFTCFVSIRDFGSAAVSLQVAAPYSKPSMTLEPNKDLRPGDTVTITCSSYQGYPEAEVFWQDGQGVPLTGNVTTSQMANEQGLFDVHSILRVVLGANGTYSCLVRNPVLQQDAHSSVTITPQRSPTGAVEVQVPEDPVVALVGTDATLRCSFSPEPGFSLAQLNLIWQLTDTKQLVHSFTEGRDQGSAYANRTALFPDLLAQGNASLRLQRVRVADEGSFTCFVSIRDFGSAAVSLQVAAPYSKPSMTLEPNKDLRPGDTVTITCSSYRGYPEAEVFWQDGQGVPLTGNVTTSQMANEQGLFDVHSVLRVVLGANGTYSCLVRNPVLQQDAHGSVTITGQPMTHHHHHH
Source text: Biacore T200 SPR instruments were used to measure the binding kinetics of human B7-H3 (analyte) binding to various mAbs (ligands). The assay format was Fc-based capture via immobilized anti-mouse (Fc) (Pierce 31170) or immobilized anti-human (Fc) (Pierce 31125). A standard amine coupling protocol was employed to immobilize the capture reagents via primary amines to the carboxy-methyl (CM) dextran surface of CM5 sensorchips (Biacore); capture antibodies were coupled to a level of approximately 5000RU. For binding kinetic measurements the assay buffer was HBS-EP+ (Biacore): 10 mM Hepes, pH7.4, 150 mM NaCl, 3 mM EDTA, 0.05% polysorbate 20. During the assay, all measurements were referenced against the capture surface alone. Each assay cycle consisted of the following steps: 1) Capture of ligand to approximately 50RU; 2) Analyte injection over both reference and test surface, 240 μL at 80 μL/min, after which the dissociation was monitored for 900 seconds at 80 μL/min; 3) Regeneration of capture surface with low pH glycine. […] Data were processed and fit to a 1:1 binding model using Biacore T200 Evaluation Software to determine the binding kinetic rate constants, kₐ (on-rate) and kd (off-rate), and the equilibrium dissociation constant (affinity, KD).
These variants were further characterized for binding by SPR and as ADCs conjugated to the Bcl-xL inhibitor synthon (linker warhead) CZ. […] An ADC comprising chAb3 conjugated to synthon CZ was used as a control.

Binder	EC50 [1] [nM]	EC50 [2] [nM]	Kd [3] [nM]
chAb2-CZ (antibody, IgG1, V domains shown, synthon CZ on reduced interchain Cys) VH: QVQLQQPGAELVKPGASVKLSCKASGYTFTSYWMHWVKQRPGQGLEWIGMIHPDSGTTNYNEKFRSKATLTVDKSSSTAYMQLSSLTSEDSAVYYCAVYYGSTYWYFDVWGTGTTVTVSS VL: DVVMTQTPLSLPVSLGDQAYISCRSSQSLVHINGNTYLHWYRQKPGQSPKLLIYKVSNRFSGVPDRFSGSGSGTDFTLKISRVEAEDLGVYFCSQSTHFPFTFGSGTKLEIK	2.6		
chAb4-CZ (antibody, IgG1, V domains shown, synthon CZ on reduced interchain Cys) VH: QVQLQQPGAELVKPGASVKLSCKASGYSFTSYWMHWVKQRPGQGLEWIGMIHPNSGSNNYNEKFKSKATLTVDKSSNTAYMQLSSLTSEDSAVYYCARRLGLHFDYWGQGTTLTVSS VL: DIVMTQSQKFMSTPVGDRVSITCKASQNVGTAVAWYQQKPGQSPKLLIYSASNRYTGVPDRFTGSGSGTDFTLTISNMQSEDLADYFCQQYSSYPYTFGGGTKLEIK	0.54		
chAb18-CZ (antibody, IgG1, V domains shown, synthon CZ on reduced interchain Cys) VH: QVQLQQSAAELARPGASVKMSCKASGYSFTSYTIHWVKQRPGQGLEWIGYINPNSRNTDYNQKFKDETTLTADRSSSTAYMQLISLTSEDSAVYYCARYSGSTPYWYFDVWGAGTTVTVSS VL: QIVLTQSPAILSASPGEKVTMTCRASSSVSYMNWYQQKPGSSPKPWIYATSNLASGVPARFSVSVSGTSHSLTISRVEAEDAATYYCQQWSSNPLTFGAGTKLELK	1.78	1.14	
chAb11-CZ (antibody, IgG1, V domains shown, synthon CZ on reduced interchain Cys) VH: EVKLVESGGGLVQPGGSLRLSCATSGFTFTNYYMSWVRQPPGKALEWLGFIRNKANDYTTEYSASVKGRFTISRDNSQSILYLQMNTLRAEDSATYYCARESPGNPFAYWGQGTLVTVSA VL: DIVMTQSPSSLTVTAGEKVTMTCKSSQSLLNSGTQKNFLTWYQQKPGQPPKLLIYWASTRESGVPDRFTGSGSGTDFTLTISSVQAEDLAVYFCQNDYIYPLTFGAGTKLELK	1.12		
chAb6-CZ (antibody, IgG1, V domains shown, synthon CZ on reduced interchain Cys) VH: QVQLQQSGAELMKPGASVKISCKATGYTFSRYWIEWVKQRPGHGLEWIGEILPGSGSTNYNEKFKGKATFTADTSSNTAYMQVSSLTSEDSAVHYCARRGYGYVPYALDYWGQGTSVTVSS VL: EIQMTQTTSSLSASLGDRVTISCRASQDISNSLNWYQQKPDGTVNLLIYYTSRLYSGVPSRFSGSGSGTDYSLTISNLEQEDIATYFCQQGNTLPYTFGGGTKLEIK	0.56		
chAb16-CZ (antibody, IgG1, V domains shown, synthon CZ on reduced interchain Cys) VH: EVKLLESGGGLVQPGGSLKLSCAASGFDFSRYWMSWVRQAPGKGLEWIGEINPDSSTINYTPSLKDKFIISRDNAKNTLYLQMSKVRSEDTALYYCARPGFGNYIYAMDYWGQGTSVTVSS VL: DIQMTQTTSSLSASLGDRVTINCRASQDISNFLNWYQQKPDGTVKLLIYYTSRLYLGVPSRFSGSGSGTDYSLTISNLEQEDIATYFCQQGNTLPPTFGGGTKLEIK	0.62		
chAb14-CZ (antibody, IgG1, V domains shown, synthon CZ on reduced interchain Cys) VH: EVKLVESGGGLVKPGGSLKLSCAASGFTFSSYGMSWVRQTPEKRLEWVATISGGGTNTYYPDSVEGRFTISRDNAKNFLYLQMSSLRSEDTALYYCARHYGSQTMDYWGQGTSVTVSS VL: DIQMTQSPASLSASVGETVTITCRTSGNIHNYLTWYQQKQGKSPQLLVYNAKTLADGVPSRFSGSGSGTQFSLKINSLQPEDFGSYYCQHFWSIMWTFGGGTKLEIK	0.5		
huAb3v1 (antibody, V domains shown, humanized IgG) VH: EVQLVQSGAEVKKPGSSVKVSCKASGYTFSSYWMHWVRQAPGQGLEWMGLIHPDSGSTNYNEMFKNRVTITADKSTSTAYMELSSLRSEDTAVYYCARGGRLYFDYWGQGTTVTVSS VL: DIVMTQSPLSLPVTPGEPASISCRSSQSLVHSNGDTYLRWYLQKPGQSPQLLIYKVSNRFSGVPDRFSGSGSGTDFTLKISRVEAEDVGVYYCSQSTHVPYTFGGGTKVEIK			0.52
huAb3v5 (antibody, V domains shown, humanized IgG) VH: EVQLVQSGAEVKKPGSSVKVSCKASGYTFSSYWMHWVRQAPGQGLEWIGLIHPDSGSTNYNEMFKNRATLTVDRSTSTAYMELSSLRSEDTAVYYCAGGGRLYFDYWGQGTTVTVSS VL: DVVMTQSPLSLPVTPGEPASISCRSSQSLVHSNGDTYLRWYLQKPGQSPQLLIYKVSNRFSGVPDRFSGSGSGTDFTLKISRVEAEDVGVYYCSQSTHVPYTFGGGTKVEIK			0.23
huAb3v3 (antibody, V domains shown, humanized IgG) VH: EVQLVQSGAEVKKPGSSVKVSCKASGYTFSSYWMHWVRQAPGQGLEWIGLIHPDSGSTNYNEMFKNRATLTVDRSTSTAYVELSSLRSEDTAVYFCAGGGRLYFDYWGQGTTVTVSS VL: DVVMTQSPLSLPVTPGEPASISCRSSQSLVHSNGDTYLRWYLQKPGQSPQLLIYKVSNRFSGVPDRFSGSGSGTDFTLKISRVEAEDVGVYFCSQSTHVPYTFGGGTKVEIK			0.23
huAb3v4 (antibody, V domains shown, humanized IgG) VH: EVQLVQSGAEVKKPGSSVKVSCKASGYTFSSYWMHWVRQAPGQGLEWMGLIHPDSGSTNYNEMFKNRVTITADKSTSTAYMELSSLRSEDTAVYYCARGGRLYFDYWGQGTTVTVSS VL: DVVMTQSPLSLPVTPGEPASISCRSSQSLVHSNGDTYLRWYLQKPGQSPQLLIYKVSNRFSGVPDRFSGSGSGTDFTLKISRVEAEDVGVYYCSQSTHVPYTFGGGTKVEIK			0.57
huAb3v6 (antibody, V domains shown, humanized IgG) VH: EVQLVQSGAEVKKPGSSVKVSCKASGYTFSSYWMHWVRQAPGQGLEWIGLIHPDSGSTNYNEMFKNRATLTVDRSTSTAYVELSSLRSEDTAVYFCAGGGRLYFDYWGQGTTVTVSS VL: DVVMTQSPLSLPVTPGEPASISCRSSQSLVHSNGDTYLRWYLQKPGQSPQLLIYKVSNRFSGVPDRFSGSGSGTDFTLKISRVEAEDVGVYYCSQSTHVPYTFGGGTKVEIK			0.2
